Publication PMC11187563, “The importance of tyrosines in multimers of cyclic RGD nonapeptides: towards αvβ6-integrin targeted radiotherapeutics” (RSC Medicinal Chemistry, 2024)
Where two headings read alike, the source gives them in different places.

How the values were obtained:
[1] = SPECT imaging of H2009 tumor xenograft, ROI-based tumor uptake; format: in vivo; conditions: SCID, mouse, iv, total radioactivity, i.v. injection of 36.5 MBq, scan time 1 h
Procedure: Fig. 6 Single-photon emission computed tomography (SPECT) of a SCID mouse bearing a human H2009 tumor xenograft on the right shoulder, recorded at 4 time points (1 h, 3 h, 24 h, and 72 h) after i.v. injection of 36.5 MBq of ^177Lu-Y8, scan time 1 h. Tumor position is indicated by white dotted circle. Adjacent figures denote ROI-based tumor uptakes in % IA mL^−1. TEXT PRINTED IN THE PICTURE: no label printed: % IA / mL: 2.8 (1 h p.i.); % IA / mL: 2.7 (3 h p.i.); % IA / mL: 2.4 (24 h p.i.); % IA / mL: 2.0 (72 h p.i.) DOUBTS OF THE COPYIST ABOUT THIS PICTURE: The picture prints no substance label. The unit % IA / mL is printed only at the colour scale bar, and assigning it to the numbers beside the dotted circles is assumed.
SPECT imaging was performed for 60 min per animal on a nanoScan SPECT/CT (Mediso, Budapest, Hungary) at different timepoints (1 h, 3 h, 24 h, 72 h) after intravenous injection of approx. 40 MBq [^177Lu]Lu-Y8 per animal (n = 2). Reconstruction, image analysis and quantification of SPECT data were performed using Nucline and Interview fusion software (both Mediso).

[2] = system: αvβ6-integrin expressing human lung adenocarcinoma cell line H2009 xenografts; experiment: Ex vivo biodistribution of 177Lu-labeled peptide tetramers in H2009 xenografted SCID mice; conditions: H2009 bearing SCID mice
Procedure, shortened: (§1)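 SCID mice carried subcutaneous H2009 xenografts on the right shoulder. 177Lu-labeled conjugates were injected i.v., and ex vivo organ distribution was measured at two time points post-injection.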

[3] = as above; conditions: CB17 SCID, mouse, iv, total radioactivity; for tissue uptake at 1.5 h: 90 min p.i.; for tissue uptake at 72 h: 199 pmol, 3 d p.i.; for tissue uptake at 24 h: 154 pmol, 24 h p.i.
Procedure, shortened: as §1

[4] = adrenals, H2009 bearing SCID mice, read-out: Adrenals %IA/g
[5] = blood, H2009 bearing SCID mice, read-out: Blood %IA/g
[6] = bone, H2009 bearing SCID mice, read-out: Bone %IA/g
[7] = heart (myocard), H2009 bearing SCID mice, read-out: Heart (myocard) %IA/g
[8] = kidneys, H2009 bearing SCID mice, read-out: Kidneys %IA/g
[9] = large intestine (empty), H2009 bearing SCID mice, read-out: Large intestine (empty) %IA/g
[10] = liver, H2009 bearing SCID mice, read-out: Liver %IA/g
[11] = lung, H2009 bearing SCID mice, read-out: Lung %IA/g
[12] = muscle, H2009 bearing SCID mice, read-out: Muscle %IA/g
[13] = pancreas, H2009 bearing SCID mice, read-out: Pancreas %IA/g

CC(C)C[C@@H]1NC(=O)[C@H](CC(=O)O)NC(=O)CNC(=O)[C@H](CCCNC(=N)N)NC(=O)[C@H](Cc2ccc(O)cc2)NC(=O)[C@H](CCCCNC(=O)CCc2cn(CCCNC(=O)CCP(=O)(O)CN3CCN(CP(=O)(O)CCC(=O)NCCCn4cc(CCC(=O)NCCCC[C@H]5C(=O)N[C@@H](Cc6ccc(O)cc6)C(=O)N[C@@H](CCCNC(=N)N)C(=O)NCC(=O)N[C@@H](CC(=O)O)C(=O)N[C@@H](CC(C)C)C(=O)N[C@@H](C)C(=O)N[C@@H](Cc6ccc(O)cc6)C(=O)N6CCC[C@@H]6C(=O)N5C)nn4)CCN(CP(=O)(O)CCC(=O)NCCCn4cc(CCC(=O)NCCCC[C@H]5C(=O)N[C@@H](Cc6ccc(O)cc6)C(=O)N[C@@H](CCCNC(=N)N)C(=O)NCC(=O)N[C@@H](CC(=O)O)C(=O)N[C@@H](CC(C)C)C(=O)N[C@@H](C)C(=O)N[C@@H](Cc6ccc(O)cc6)C(=O)N6CCC[C@@H]6C(=O)N5C)nn4)CCN(CP(=O)(O)CCC(=O)NCCCn4cc(CCC(=O)NCCCC[C@H]5C(=O)N[C@@H](Cc6ccc(O)cc6)C(=O)N[C@@H](CCCNC(=N)N)C(=O)NCC(=O)N[C@@H](CC(=O)O)C(=O)N[C@@H](CC(C)C)C(=O)N[C@@H](C)C(=O)N[C@@H](Cc6ccc(O)cc6)C(=O)N6CCC[C@@H]6C(=O)N5C)nn4)CC3)nn2)N(C)C(=O)[C@H]2CCCN2C(=O)[C@H](Cc2ccc(O)cc2)NC(=O)[C@H](C)NC1=O [Compound 177Lu-Y8, metal not drawn]
tissue uptake per volume at 1 h ([1]; 1 h p.i.): 2.8 %ID/mL | tissue uptake per volume at 3 h ([1]; 3 h p.i.): 2.7 %ID/mL | tissue uptake per volume at 24 h ([1]; 24 h p.i.): 2.4 %ID/mL | tissue uptake per volume at 72 h ([1]; 72 h p.i.): 2 %ID/mL | tumor/organ ratio, Kidneys ([2]; 90 min p.i.): 0.0 | tumor/organ ratio, Kidneys ([2]; 24 h p.i.): 0.0 | tumor/organ ratio, Kidneys ([2]; 3 d p.i.): 0.0 | tissue uptake at 1.5 h ([3]; H2009 tumor, 124 pmol, H2009 bearing SCID mice, read-out: Tumor H2009 %IA/g): 5.89 %ID/g | tissue uptake at 72 h ([3]; H2009 tumor, H2009 bearing SCID mice, read-out: Tumor H2009 %IA/g): 1.67 %ID/g | tissue uptake at 1.5 h ([3]; adrenals, 124 pmol, H2009 bearing SCID mice, read-out: Adrenals %IA/g): 0.71 %ID/g | tissue uptake at 24 h [3, 4]: 0.25 %ID/g | tissue uptake at 72 h [3, 4]: 0.22 %ID/g | tissue uptake at 1.5 h ([3]; adrenals, + 50 nmol non-labeled compound 10 min prior to activity, n = 2, read-out: Adrenals %IA/g, + 50 nmol cold): 0.53 %ID/g | tissue uptake at 1.5 h ([3]; blood, 124 pmol, H2009 bearing SCID mice, read-out: Blood %IA/g): 2.54 %ID/g | tissue uptake at 24 h [3, 5]: 0.04 %ID/g | tissue uptake at 72 h [3, 5]: 0.03 %ID/g | tissue uptake at 1.5 h ([3]; blood, + 50 nmol non-labeled compound 10 min prior to activity, n = 2, read-out: Blood %IA/g, + 50 nmol cold): 1.06 %ID/g | tissue uptake at 1.5 h ([3]; bone, 124 pmol, H2009 bearing SCID mice, read-out: Bone %IA/g): 3.24 %ID/g | tissue uptake at 24 h [3, 6]: 0.68 %ID/g | tissue uptake at 72 h [3, 6]: 0.57 %ID/g | tissue uptake at 1.5 h ([3]; bone, + 50 nmol non-labeled compound 10 min prior to activity, n = 2, read-out: Bone %IA/g, + 50 nmol cold): 0.76 %ID/g | tissue uptake at 1.5 h ([3]; heart (myocard), 124 pmol, H2009 bearing SCID mice, read-out: Heart (myocard) %IA/g): 1.01 %ID/g | tissue uptake at 24 h [3, 7]: 0.16 %ID/g | tissue uptake at 72 h [3, 7]: 0.13 %ID/g | tissue uptake at 1.5 h ([3]; heart (myocard), + 50 nmol non-labeled compound 10 min prior to activity, n = 2, read-out: Heart (myocard) %IA/g, + 50 nmol cold): 0.64 %ID/g | tissue uptake at 1.5 h ([3]; kidneys, 124 pmol, H2009 bearing SCID mice, read-out: Kidneys %IA/g): 166 %ID/g | tissue uptake at 24 h [3, 8]: 235 %ID/g | tissue uptake at 72 h [3, 8]: 237 %ID/g | tissue uptake at 1.5 h ([3]; kidneys, + 50 nmol non-labeled compound 10 min prior to activity, n = 2, read-out: Kidneys %IA/g, + 50 nmol cold): 178 %ID/g | tissue uptake at 1.5 h ([3]; large intestine (empty), 124 pmol, H2009 bearing SCID mice, read-out: Large intestine (empty) %IA/g): 3.66 %ID/g | tissue uptake at 24 h [3, 9]: 1.46 %ID/g | tissue uptake at 72 h [3, 9]: 0.48 %ID/g | tissue uptake at 1.5 h ([3]; large intestine (empty), + 50 nmol non-labeled compound 10 min prior to activity, n = 2, read-out: Large intestine (empty) %IA/g, + 50 nmol cold): 0.89 %ID/g | tissue uptake at 1.5 h ([3]; liver, 124 pmol, H2009 bearing SCID mice, read-out: Liver %IA/g): 1.16 %ID/g | tissue uptake at 24 h [3, 10]: 0.98 %ID/g | tissue uptake at 72 h [3, 10]: 0.7 %ID/g | tissue uptake at 1.5 h ([3]; liver, + 50 nmol non-labeled compound 10 min prior to activity, n = 2, read-out: Liver %IA/g, + 50 nmol cold): 0.7 %ID/g | tissue uptake at 1.5 h ([3]; lung, 124 pmol, H2009 bearing SCID mice, read-out: Lung %IA/g): 5.63 %ID/g | tissue uptake at 24 h [3, 11]: 1.2 %ID/g | tissue uptake at 72 h [3, 11]: 0.73 %ID/g | tissue uptake at 1.5 h ([3]; lung, + 50 nmol non-labeled compound 10 min prior to activity, n = 2, read-out: Lung %IA/g, + 50 nmol cold): 3.39 %ID/g | tissue uptake at 1.5 h ([3]; muscle, 124 pmol, H2009 bearing SCID mice, read-out: Muscle %IA/g): 0.87 %ID/g | tissue uptake at 24 h [3, 12]: 0.36 %ID/g | tissue uptake at 72 h [3, 12]: 0.23 %ID/g | tissue uptake at 1.5 h ([3]; muscle, + 50 nmol non-labeled compound 10 min prior to activity, n = 2, read-out: Muscle %IA/g, + 50 nmol cold): 0.2 %ID/g | tissue uptake at 1.5 h ([3]; pancreas, 124 pmol, H2009 bearing SCID mice, read-out: Pancreas %IA/g): 0.42 %ID/g | tissue uptake at 24 h [3, 13]: 0.14 %ID/g | tissue uptake at 72 h [3, 13]: 0.12 %ID/g | tissue uptake at 1.5 h ([3]; pancreas, + 50 nmol non-labeled compound 10 min prior to activity, n = 2, read-out: Pancreas %IA/g, + 50 nmol cold): 0.19 %ID/g
